We go through one molecule from article PMC6581901, “The SRP signal sequence of KdpD” (Scientific Reports, 2019).

The target in test [1] is T1, SRP reconstituted from wild-type Ffh (406C) and 4.5S RNA (E. coli, UniProt P0AGD7 1-453).
T1 construct: Ffh (fifty-four-homolog), 48-kDa protein component of E. coli SRP, expressed from pMS-Ffh-C-Strep; Ribonucleoprotein: Ffh with a 1.5-fold molar excess of 4.5S RNA; the RNA is not written as a chain; also called wildtype SRP; source: E. coli BL21 (DE3), purified (Strep-Tactin, Superdex 75); reconstituted with in vitro transcribed 4.5S RNA
T1 sequence (looked up): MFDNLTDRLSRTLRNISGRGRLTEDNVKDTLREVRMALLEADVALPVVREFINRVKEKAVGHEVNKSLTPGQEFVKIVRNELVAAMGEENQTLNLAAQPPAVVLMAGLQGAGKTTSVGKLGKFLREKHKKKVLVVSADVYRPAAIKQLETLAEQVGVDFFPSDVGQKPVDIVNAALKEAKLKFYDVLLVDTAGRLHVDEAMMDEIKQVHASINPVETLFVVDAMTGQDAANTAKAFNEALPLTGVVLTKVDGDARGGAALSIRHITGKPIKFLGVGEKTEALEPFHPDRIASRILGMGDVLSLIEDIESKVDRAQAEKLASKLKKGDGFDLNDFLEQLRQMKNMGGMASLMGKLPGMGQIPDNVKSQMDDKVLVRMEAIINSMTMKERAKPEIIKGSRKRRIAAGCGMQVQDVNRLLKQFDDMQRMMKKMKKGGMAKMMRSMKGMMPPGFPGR
Kind of test: cross-linking; disulfide cross-linking with 1 mM copper phenanthroline; 2 µM reconstituted SRP (Ffh + 3 µM 4.5S RNA) with 20 µM peptide, 1 h on ice, 50 mM Tris pH 7.4, 150 mM NaCl, 10 mM MgCl2; TCA precipitation, SDS-PAGE with or without DTT. As to conditions: both partners purified.

Test [2] deals with T2, SRP reconstituted from Ffh 406S/423C and 4.5S RNA (E. coli, UniProt P0AGD7 1-453, M423C | C406S).
T2 construct: Ffh of E. coli SRP with a cysteine at 423 (M domain pocket) and a serine at 406, from pMS-Ffh-M423C-C-Strep; Ribonucleoprotein with 4.5S RNA; also called SRP 423; Ffh M423C; source: E. coli BL21 (DE3), purified (Strep-Tactin, Superdex 75); reconstituted with in vitro transcribed 4.5S RNA
T2 sequence (looked up): T1 sequence (looked up) with C406S, M423C
The description is as above. The conditions noted are these: both partners purified.

Where a chain is given by its changes, count along the chain named.

B1: KdpD peptide (residues 22-48), in vitro synthesized (peptide)
peptide: Ac-RGKLKVFFGACAGVGKTWAMLAEAQRL-NH2
notes: also called KdpD22-48; KdpD22–48 peptide; source: synthetic peptide (GENOSPHERE Biotechnologies, purity >95%)
In the case of B1, the binding result in test [1] and in test [2] was “binds” each time.
